Read-outs that look alike come from different tables or passages of the source.
What was measured:
[1] = dog, in vivo
Procedure: The other monoclonal antibody, specific for an N-terminal epitope, was biotinylated. […] Illumination of the complex releases singlet oxygen atoms from the donor beads which channels into the acceptor beads and trigger chemiluminescence which was measured in the EnVision plate reader.
The LC-MS system consisted of Waters Acquity UPLC system (Waters) consisting of an autosampler (Model Acq-SM), pump (Model Acq-BSM), column oven (Model Acq-SM), detector (Model Acq-TUV) and LTQ Orbitrap XL (Thermo Fisher). RP-HPLC separation was achieved using a linear gradient of acetonitrile in 0.1% formic acid using CSH C18 column (Waters, 1×150 mm) with a flow rate of 0.1 ml/min at 45° C.
A pharmacokinetic study was carried out to determine plasma half-life of the GLP-1 peptides after p.o. administration to Beagle dogs.
Dogs were administered p.o. GLP-1 peptide 1 in a SNAC formulation. Blood samples were drawn at predefined time points after dosing, and samples were analysed for concentration of the GLP-1 peptide. […] The variability in plasma concentration of the GLP-1 peptide was determined as % CV for AUC. […]
Blood samples were drawn at predefined time points after dosing, and samples were analysed for concentration of the GLP-1 peptide. […] The variability in plasma concentration of the GLP-1 peptide was determined as % CV for AUC. […]

[2] = Pharmacokinetic study: variability in plasma concentration (% CV) after p.o. administration of SNAC tablet to humans; format: in vivo; details: for % CV AUC / % CV Cmax: p.o. tablet with 300 mg SNAC
Procedure: The variability in plasma concentration was determined as % CV for both Cmax and AUC.

[3] = 10 mg, single dose, healthy subjects
[4] = 10 mg/day for 70 days, healthy subjects, Day 70
[5] = 20 mg/day for 70 days, healthy subjects, Day 69
[6] = 40 mg/day for 70 days, healthy subjects, Day 69
[7] = 40 mg/day for 70 days, subjects with type 2 diabetes, Day 69

In the case of “N-epsilon26-[2-(2-{2-[2-(2-{2-[(S)-4-Carboxy-4-(17-carboxyheptadecanoyl-amino)butyrylamino]ethoxy}ethoxy)acetylamino]ethoxy}ethoxy)acetyl][Aib8,Arg34]GLP-1-(7-37) [GLP-1 peptide 1]”, the “variability in plasma exposure, daily dosing compared to single dose” value [1] is reported as “significantly reduced”, the “% CV AUC” value ([1]; po, 300 mg) is reported as 67% and the “variability in plasma exposure, daily dosing compared to single dose” value ([2]; humans, 10, 20 or 40 mg daily for 70 days vs single dose of 10 mg) is reported as “significantly reduced”. The “% CV AUC” value [2, 3] was 105%, the “% CV Cmax” value [2, 3] was 113% and the “% CV AUC” value [2, 4] was 73% (Day 70). For the same substance, the “% CV Cmax” value [2, 4] was 74% (Day 70), the “% CV AUC” value [2, 5] was 67% (Day 69) and the “% CV Cmax” value [2, 5] was 62% (Day 69). The “% CV AUC” value [2, 6] was 78% (Day 69), the “% CV Cmax” value [2, 6] was 80% (Day 69) and the “% CV AUC” value [2, 7] was 55% (Day 69). For the same substance, the “% CV Cmax” value [2, 7] was 54% (Day 69).

Reference: US10278923B2, “Oral dosing of GLP-1 compounds” (Novo Nordisk A/S, priority 2013, dated 2019)
